The source of these data is patent US20250262210A1 (TRUSTEES OF COLUMBIA UNIVERSITY IN THE CITY OF NEW YORK, published 2025).

The target in the test is T1, NCAPD3 (human, UniProt P42695 1-1498).
T1 sequence (looked up): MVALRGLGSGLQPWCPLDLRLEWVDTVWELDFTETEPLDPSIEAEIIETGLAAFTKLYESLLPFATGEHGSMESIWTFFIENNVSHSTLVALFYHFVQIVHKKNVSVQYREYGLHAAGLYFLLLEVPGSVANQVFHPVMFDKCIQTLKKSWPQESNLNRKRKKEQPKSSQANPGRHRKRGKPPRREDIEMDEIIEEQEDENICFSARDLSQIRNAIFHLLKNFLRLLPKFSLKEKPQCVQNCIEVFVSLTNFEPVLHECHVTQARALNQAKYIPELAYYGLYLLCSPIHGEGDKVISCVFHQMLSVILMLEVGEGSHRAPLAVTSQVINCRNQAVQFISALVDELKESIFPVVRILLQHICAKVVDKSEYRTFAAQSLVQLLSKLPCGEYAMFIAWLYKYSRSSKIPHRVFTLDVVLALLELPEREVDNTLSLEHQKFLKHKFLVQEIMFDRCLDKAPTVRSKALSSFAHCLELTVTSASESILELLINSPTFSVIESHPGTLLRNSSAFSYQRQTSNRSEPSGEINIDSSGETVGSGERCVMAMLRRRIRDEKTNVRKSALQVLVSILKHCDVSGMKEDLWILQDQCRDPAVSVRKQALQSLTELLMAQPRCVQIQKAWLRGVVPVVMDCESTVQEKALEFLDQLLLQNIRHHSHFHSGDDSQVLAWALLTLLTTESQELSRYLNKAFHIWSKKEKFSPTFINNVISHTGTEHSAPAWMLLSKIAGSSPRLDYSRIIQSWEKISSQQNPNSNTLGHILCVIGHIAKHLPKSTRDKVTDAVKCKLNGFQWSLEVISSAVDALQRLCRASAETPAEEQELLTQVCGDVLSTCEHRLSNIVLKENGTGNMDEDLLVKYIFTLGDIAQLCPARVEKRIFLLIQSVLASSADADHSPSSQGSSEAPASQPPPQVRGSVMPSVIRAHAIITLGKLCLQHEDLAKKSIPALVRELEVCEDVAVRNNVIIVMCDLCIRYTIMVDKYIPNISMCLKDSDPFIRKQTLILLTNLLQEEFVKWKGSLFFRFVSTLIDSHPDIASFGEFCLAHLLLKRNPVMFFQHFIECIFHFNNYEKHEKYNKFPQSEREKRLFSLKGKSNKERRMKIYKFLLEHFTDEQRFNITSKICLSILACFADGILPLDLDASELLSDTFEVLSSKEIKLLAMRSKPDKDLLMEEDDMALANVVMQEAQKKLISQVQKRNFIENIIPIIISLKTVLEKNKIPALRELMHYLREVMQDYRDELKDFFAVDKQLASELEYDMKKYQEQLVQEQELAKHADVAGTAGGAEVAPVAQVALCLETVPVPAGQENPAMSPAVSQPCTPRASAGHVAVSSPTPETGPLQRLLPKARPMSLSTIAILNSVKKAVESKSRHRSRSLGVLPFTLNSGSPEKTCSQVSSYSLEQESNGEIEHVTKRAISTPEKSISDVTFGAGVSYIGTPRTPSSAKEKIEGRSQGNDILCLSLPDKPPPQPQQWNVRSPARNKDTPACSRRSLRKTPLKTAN
The test is described as follows: IP/MS, LZTR1 R810W-FLAG, U87. Put shortly:
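Gel slices were reduced with 5 mM DTT, alkylated with 11 mM IAA and digested overnight at 37° C. with trypsin. Peptides were analysed on an Orbitrap Fusion Tribrid by LC-MS/MS.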

B1: LZTR1 R810W-FLAG (other, human, UniProt Q8N653 1-840, looked up)
chain: MAGPGSTGGQIGAAALAGGARSKVAPSVDFDHSCSDSVEYLTLNFGPFETVHRWRRLPPCDEFVGARRSKHTVVAYKDAIYVFGGDNGKTMLNDLLRFDVKDCSWCRAFTTGTPPAPRYHHSAVVYGSSMFVFGGYTGDIYSNSNLKNKNDLFEYKFATGQWTEWKIEGRLPVARSAHGATVYSDKLWIFAGYDGNARLNDMWTIGLQDRELTCWEEVAQSGEIPPSCCNFPVAVCRDKMFVFSGQSGAKITNNLFQFEFKDKTWTRIPTEHLLRGSPPPPQRRYGHTMVAFDRHLYVFGGAADNTLPNELHCYDVDFQTWEVVQPSSDSEVGGAEVPERACASEEVPTLTYEERVGFKKSRDVFGLDFGTTSAKQPTQPASELPSGRLFHAAAVISDAMYIFGGTVDNNIRSGEMYRFQFSCYPKCTLHEDYGRLWESRQFCDVEFVLGEKEECVQGHVAIVTARSRWLRRKITQARERLAQKLEQEAAPVPREAPGVAAGGARPPLLHVAIREAEARPFEVLMQFLYTDKIKYPRKGHVEDVLLIMDVYKLALSFQLCRLEQLCRQYIEASVDLQNVLVVCESAARLQLSQLKEHCLNFVVKESHFNQVIMMKEFERLSSPLIVEIVRRKQQPPPRTPLDQPVDIGTSLIQDMKAYLEGAGAEFCDITLLLDGHPRPAHKAILAARSSYFEAMFRSFMPEDGQVNISIGEMVPSRQAFESMLRYIYYGEVNMPPEDSLYLFAAPYYYGFYNNRLQAYCKQNLEMNVTVQNVLQILEAADKTQALDMKRHCLHIIVHQFTKVSKLPTLWSLSQQLLLDIIDSLASHISDKQCAELGADI
notes: Stably expressed in U87 cells by lentivirus; also called LZTR1-FLAG-R810W; LZTR1 RW; not shown: FLAG tag
For B1, the binding result was “binds”.
